B1: anti-CD66c chimeric antibody 8F5 (antibody, human IgG1, V domains shown)
VH: EVQLQQSGPELVKPGASMKISCKASGYSFTDYTMNWVKQSHGKNLEWIGLINPFHGGTVSNQRFKVKATLTVDVSSNTAYMELLSLTSDDSAVYYCVRGDPVRHYYALAYWGQGTSVTVSS
VL: DIQMTQSPASLSASVGETVTITCGASENVYGTLNWYQRKQGKSPQLLIYGATNLADGMSSRFSGSGSGRQYSLKISSLHPDDVATYYCQNVLSAPYTFGGGTKLEII
notes: also called chimeric 8F5; chi 8F5
B2: recombinant humanized anti-CD66c antibody Protein ID 3058 (Vk8 + VH11) (antibody, human IgG1, V domains shown)
VH: QVQLVQSGAEVKKPGASVKISCKASGYSFTDYTMHWVKQAPGQNLEWIGLINPFGGSTSYAQKFKGRVTMTRDTSTNTAYMELSRLRSDDTAVYYCVRGDPVRHYYALAYWGQGTLVTVSS
VL: DIQMTQSPSTLSASVGDRVTITCRASENVYGTLNWYQRKPGKAPKLLIYGATNLADGMPSRFSGSGSGTEYTLTISSLQPDDFATYYCQNVLSAPYTFGGGTKLEIK
notes: also called hu 3058; #86
B3: recombinant humanized anti-CD66c antibody Protein ID 3007 (Vk7 + VH6) (antibody, human IgG1, V domains shown)
VH: QVQLVQSGAEVKKPGASMKISCKASGYSFTDYTMNWVKQAPGQNLEWIGLINPFHGGTVSNQRFKVKATLTVDVSTNTAYMELSRLRSDDTAVYYCVRGDPVRHYYALAYWGQGTLVTVSS
VL: DIQMTQSPSTLSASVGDRVTITCGASENVYGTLNWYQRKPGKAPKLLIYGATNLADGVPSRFSGSGSGTEYTLTISSLQPDDFATYYCQNVLSAPYTFGGGTKLEIK
notes: also called hu 3007; #43
B4: recombinant humanized anti-CD66c antibody Protein ID 3043 (Vk8 + VH6) (antibody, V domains shown)
VH: QVQLVQSGAEVKKPGASMKISCKASGYSFTDYTMNWVKQAPGQNLEWIGLINPFHGGTVSNQRFKVKATLTVDVSTNTAYMELSRLRSDDTAVYYCVRGDPVRHYYALAYWGQGTLVTVSS
VL: DIQMTQSPSTLSASVGDRVTITCRASENVYGTLNWYQRKPGKAPKLLIYGATNLADGMPSRFSGSGSGTEYTLTISSLQPDDFATYYCQNVLSAPYTFGGGTKLEIK
notes: also called hu 3043; #71
B5: recombinant humanized anti-CD66c antibody Protein ID 2938 (Vk5 + VH7) (antibody, human IgG1, V domains shown)
VH: QVQLVQSGAEVKKPGASMKISCKASGYSFTDYTMNWVRQAPGQGLEWIGLINPFHGGTVSNQRFKVKATLTVDVSTNTAYMELSRLRSDDTAVYYCVRGDPVRHYYALAYWGQGTLVTVSS
VL: DIQMTQSPSTLSASVGDRVTITCGASENVYGTLAWYQRKPGKAPKLLIYGATNLADGVPSRFSGSGSGREYTLTISSLQPDDFATYYCQNVLSAPYTFGGGTKLEIK
notes: also called hu 2938

Key:
[1] = target: T1, Antigen CD66c (CEACAM6; Sino Biological, Inc.) (UniProt P40199 35-320); experiment: ELISA, CEACAM6 coated 100 ng/well, antibody at 123.46 ng/ml
T1 construct: Bought antigen, coated on the ELISA plate; construct not described; also called CECACAM6 (CD66c) antigen; CD66c antigen
T1 sequence (looked up): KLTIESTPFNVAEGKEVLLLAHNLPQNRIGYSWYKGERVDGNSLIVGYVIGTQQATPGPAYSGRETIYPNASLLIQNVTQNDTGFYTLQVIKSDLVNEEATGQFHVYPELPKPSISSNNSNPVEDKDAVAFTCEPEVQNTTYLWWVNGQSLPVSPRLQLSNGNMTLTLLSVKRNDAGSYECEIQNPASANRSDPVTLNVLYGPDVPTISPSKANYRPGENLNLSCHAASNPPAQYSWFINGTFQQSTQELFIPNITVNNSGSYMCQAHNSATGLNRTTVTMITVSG
Method: (§1) Antigen CD66c (CEACAM6; Sino Biological, Inc.) and CEACAM1 antigen (Sino Biological, Inc.) were coated on a 96-well plate at a rate of 100 ng per well and then blocked. The primary antibody was diluted 3-fold from 10 ug/ml and bound at 37° C. for 1 hour. […] goat anti-Human Ig-HRP conjugate (Jackson ImmunoResearch) as a secondary antibody was diluted 1:10,000 and incubated at 37° C. for 30 minutes. The washing was carried out at three times between each step, and the TMB reaction was performed, stopped with 1N H₂SO₄ solution at the same amount of TMB solution (100 ul) and then OD value was measured at 450 nm.
(§2) As a result of the experiment, the binding affinities to CD66c antigen of the five kinds of recombinant humanized antibodies selected from among 96 kinds of recombinant humanized antibodies are shown in FIG. 4a, Table 12, FIG. 4b and Table 13. FIG. 4a and Table 12 show the binding capacity of the antibodies to CECACAM6 CD66c) antigen, and FIG. 4b and Table 13 are the results for the CEACAM1 (CD66a) antigen.

[2] = target: T1, Antigen CD66c (CEACAM6; Sino …); experiment: ELISA, CEACAM6 coated 100 ng/well, antibody at 41.15 ng/ml
Method: as §1

[3] = target: T1, Antigen CD66c (CEACAM6; Sino …); experiment: ELISA, CEACAM6 coated 100 ng/well, antibody at 1111.11 ng/ml
Method: as §1, §2

[4] = target: T2, CEACAM1 antigen (Sino Biological, Inc.) (UniProt P13688 35-428); experiment: ELISA, CEACAM1 coated 100 ng/well, antibody at 41.15 ng/ml
T2 construct: Bought antigen, coated on the ELISA plate; construct not described; also called CEACAM1 (CD66a) antigen; CD66a
T2 sequence (looked up): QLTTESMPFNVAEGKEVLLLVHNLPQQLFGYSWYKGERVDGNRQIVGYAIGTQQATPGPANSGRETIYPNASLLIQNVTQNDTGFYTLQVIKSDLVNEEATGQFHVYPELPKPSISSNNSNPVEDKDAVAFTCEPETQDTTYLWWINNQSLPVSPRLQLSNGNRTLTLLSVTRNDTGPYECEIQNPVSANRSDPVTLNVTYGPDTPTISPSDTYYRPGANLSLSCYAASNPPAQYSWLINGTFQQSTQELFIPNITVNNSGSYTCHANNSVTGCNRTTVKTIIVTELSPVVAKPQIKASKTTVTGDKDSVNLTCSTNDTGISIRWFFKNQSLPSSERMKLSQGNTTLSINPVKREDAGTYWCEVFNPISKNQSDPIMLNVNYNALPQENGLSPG
Method: as §1

[5] = target: T2, CEACAM1 antigen (Sino Biological, Inc.); experiment: ELISA, CEACAM1 coated 100 ng/well, antibody at 3333.33 ng/ml
Method: as §1

[6] = target: T1, Antigen CD66c (CEACAM6; Sino …); experiment: ELISA, CEACAM6 coated 100 ng/well, antibody at 0.17 ng/ml
Method: as §1, §2

[7] = target: T1, Antigen CD66c (CEACAM6; Sino …); experiment: ELISA, CEACAM6 coated 100 ng/well, antibody at 370.37 ng/ml
Method: as §1, §2

[8] = target: T1, Antigen CD66c (CEACAM6; Sino …); experiment: ELISA, CEACAM6 coated 100 ng/well, antibody at 4.57 ng/ml
Method: as §1, §2

[9] = target: T2, CEACAM1 antigen (Sino Biological, Inc.); experiment: ELISA, CEACAM1 coated 100 ng/well, antibody at 0.17 ng/ml
Method: as §1, §2

[10] = target: T1, Antigen CD66c (CEACAM6; Sino …); experiment: ELISA, CEACAM6 coated 100 ng/well, antibody at 3333.33 ng/ml
Method: as §1, §2

[11] = target: T2, CEACAM1 antigen (Sino Biological, Inc.); experiment: ELISA, CEACAM1 coated 100 ng/well, antibody at 4.57 ng/ml
Method: as §1

[12] = target: T2, CEACAM1 antigen (Sino Biological, Inc.); experiment: ELISA, CEACAM1 coated 100 ng/well, antibody at 0.51 ng/ml
Method: as §1

[13] = target: T2, CEACAM1 antigen (Sino Biological, Inc.); experiment: ELISA, CEACAM1 coated 100 ng/well, antibody at 1111.11 ng/ml
Method: as §1

[14] = target: T1, Antigen CD66c (CEACAM6; Sino …); experiment: ELISA, CEACAM6 coated 100 ng/well, antibody at 10000.00 ng/ml
Method: as §1, §2

[15] = target: T2, CEACAM1 antigen (Sino Biological, Inc.); experiment: ELISA, CEACAM1 coated 100 ng/well, antibody at 1.52 ng/ml
Method: as §1

Row | Binder | OD 450 nm [1] | OD 450 nm [2] | OD 450 nm [3] | OD 450 nm [4] | OD 450 nm [5] | OD 450 nm [6] | OD 450 nm [7] | OD 450 nm [8] | OD 450 nm [9] | OD 450 nm [10] | OD 450 nm [11] | OD 450 nm [12] | OD 450 nm [13] | OD 450 nm [14] | OD 450 nm [15]
1 | B1 | 2.83 OD 450 nm | 2.02 OD 450 nm | 3.3 OD 450 nm | 0.82 OD 450 nm | 1.24 OD 450 nm | 0.4 OD 450 nm | 3.3 OD 450 nm | 0.8 OD 450 nm | 0.08 OD 450 nm | 3.41 OD 450 nm | 0.28 OD 450 nm | 0.1 OD 450 nm | 1.21 OD 450 nm | 3.17 OD 450 nm | 0.16 OD 450 nm
2 | B2 | 2.22 OD 450 nm | 1.38 OD 450 nm | 3.19 OD 450 nm | 0.07 OD 450 nm | 0.31 OD 450 nm | 0.37 OD 450 nm | 2.8 OD 450 nm | 0.74 OD 450 nm | 0.04 OD 450 nm | 3.18 OD 450 nm | 0.05 OD 450 nm | 0.04 OD 450 nm | 0.19 OD 450 nm | 2.87 OD 450 nm | 0.05 OD 450 nm
3 | B3 | 2.9 OD 450 nm | 2.17 OD 450 nm | 3.23 OD 450 nm | 0.66 OD 450 nm | 1.15 OD 450 nm | 0.53 OD 450 nm | 3.16 OD 450 nm | 1.02 OD 450 nm | 0.09 OD 450 nm | 3.24 OD 450 nm | 0.27 OD 450 nm | 0.11 OD 450 nm | 1.06 OD 450 nm | 3.37 OD 450 nm | 0.18 OD 450 nm
4 | B4 | 2.29 OD 450 nm | 1.73 OD 450 nm | 2.74 OD 450 nm | 0.61 OD 450 nm | 1.22 OD 450 nm | 0.41 OD 450 nm | 2.92 OD 450 nm | 0.91 OD 450 nm | 0.08 OD 450 nm | 2.95 OD 450 nm | 0.27 OD 450 nm | 0.1 OD 450 nm | 1.17 OD 450 nm | 2.73 OD 450 nm | 0.16 OD 450 nm
5 | B5 | 2.56 OD 450 nm | 1.72 OD 450 nm | 3.16 OD 450 nm | 0.07 OD 450 nm | 0.27 OD 450 nm | 0.3 OD 450 nm | 3.08 OD 450 nm | 0.65 OD 450 nm | 0.04 OD 450 nm | 3.27 OD 450 nm | 0.05 OD 450 nm | 0.05 OD 450 nm | 0.21 OD 450 nm | 3.43 OD 450 nm | 0.05 OD 450 nm
